The results in this text go back to doi:10.1101/245167 (bioRxiv, 2018).

First the molecules themselves.
B1: Ska3 (as subunit of the wild-type Ska complex) (natural protein)
chain: MDPIRSFCGKLRSLASTLDCETARLQRALDGEESDFEDYPMRILYDLHSEVQTLKDDVNILLDKARLENQEGIDFIKATKVLMEKNSMDIMKIREYFQKYGYSPRVKKNSVHEQEAINSDPELSNCENFQKTDVKDDLSDPPVASSCISEKSPRSPQLSDFGLERYIVSQVLPNPPQAVNNYKEEPVIVTPPTKQSLVKVLKTPKCALKMDDFECVTPKLEHFGISEYTMCLNEDYTMGLKNARNNKSEEAIDTESRLNDNVFATPSPIIQQLEKSDAEYTNSPLVPTFCTPGLKIPSTKNSIALVSTNYPLSKTNSSSNDLEVEDRTSLVLNSDTCFENLTDPSSPTISSYENLLRTPTPPEVTKIPEDILQLLSKYNSNLATPIAIKAVPPSKRFLKHGQNIRDVSNKEN

Holding throughout (experiment): cross-linking
Experiment [1] concerns the target T1, Nuf2 (as subunit of the wild-type Ndc80 complex) (human, UniProt Q9BZD4 1-464).
T1 sequence: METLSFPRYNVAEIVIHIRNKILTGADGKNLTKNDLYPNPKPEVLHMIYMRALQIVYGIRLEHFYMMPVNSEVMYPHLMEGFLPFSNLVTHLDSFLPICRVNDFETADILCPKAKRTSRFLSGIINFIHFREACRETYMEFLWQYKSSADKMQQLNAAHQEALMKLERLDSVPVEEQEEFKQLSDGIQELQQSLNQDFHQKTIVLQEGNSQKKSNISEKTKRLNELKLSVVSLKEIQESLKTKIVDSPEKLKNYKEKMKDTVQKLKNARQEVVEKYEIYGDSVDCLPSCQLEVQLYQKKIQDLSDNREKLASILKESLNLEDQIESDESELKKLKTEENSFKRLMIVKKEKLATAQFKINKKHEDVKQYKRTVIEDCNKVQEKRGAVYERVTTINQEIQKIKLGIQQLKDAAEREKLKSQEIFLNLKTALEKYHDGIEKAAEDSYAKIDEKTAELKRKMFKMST

Experiment [2] deals with T2, Hec1 (as subunit of the wild-type Ndc80 complex) (human, UniProt O14777 1-642).
T2 sequence: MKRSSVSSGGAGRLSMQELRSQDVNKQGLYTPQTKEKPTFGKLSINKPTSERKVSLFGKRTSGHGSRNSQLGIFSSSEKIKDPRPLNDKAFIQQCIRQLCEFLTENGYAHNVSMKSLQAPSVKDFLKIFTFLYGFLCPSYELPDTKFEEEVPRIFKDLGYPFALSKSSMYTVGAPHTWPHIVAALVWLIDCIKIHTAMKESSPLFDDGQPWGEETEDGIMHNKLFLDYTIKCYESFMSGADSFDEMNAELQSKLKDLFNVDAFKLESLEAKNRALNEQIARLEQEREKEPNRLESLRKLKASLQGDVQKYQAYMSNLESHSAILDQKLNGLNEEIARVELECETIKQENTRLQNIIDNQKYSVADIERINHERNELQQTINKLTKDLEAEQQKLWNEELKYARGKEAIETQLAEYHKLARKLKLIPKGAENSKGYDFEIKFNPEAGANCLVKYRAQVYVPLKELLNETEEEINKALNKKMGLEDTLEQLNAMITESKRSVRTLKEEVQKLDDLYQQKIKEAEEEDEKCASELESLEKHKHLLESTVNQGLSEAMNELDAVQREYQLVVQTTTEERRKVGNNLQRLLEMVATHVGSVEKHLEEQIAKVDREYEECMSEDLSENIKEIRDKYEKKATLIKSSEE

For experiment [3], the target named is human Ndc80 complex (Hec1, Nuf2, Spc24-His, Spc25), wild type (human, UniProt O14777;Q9BZD4;Q8NBT2;Q9HBM1).
In experiment [4] the target is B1.

In the case of B1, the binding result in experiment [1] and in experiment [2] was “binds” throughout.

B2: Ska complex^(Ska1 ΔMTBD) (full length Ska2 and Ska3 with Ska1 residues 1-131), without His-tag (complex)
chain 1: MASSDLEQLCSHVNEKIGNIKKTLSLRNCGQEPTLKTVLNKIGDEIIVINELLNKLELEIQYQEQTNNSLKELCESLEEDYKDIEHLKENVPSHLPQVTVTQSCVKGSDLDPEEPIKVEEPEPVKKPPKEQ
chain 2: MEAEVDKLELMFQKAESDLDYIQYRLEYEIKTNHPDSASEKNPVTLLKELSVIKSRYQTLYARFKPVAVEQKESKSRICATVKKTMNMIQKLQKQTDLELSPLTKEEKTAAEQFKFHMPDL
chain 3: MDPIRSFCGKLRSLASTLDCETARLQRALDGEESDFEDYPMRILYDLHSEVQTLKDDVNILLDKARLENQEGIDFIKATKVLMEKNSMDIMKIREYFQKYGYSPRVKKNSVHEQEAINSDPELSNCENFQKTDVKDDLSDPPVASSCISEKSPRSPQLSDFGLERYIVSQVLPNPPQAVNNYKEEPVIVTPPTKQSLVKVLKTPKCALKMDDFECVTPKLEHFGISEYTMCLNEDYTMGLKNARNNKSEEAIDTESRLNDNVFATPSPIIQQLEKSDAEYTNSPLVPTFCTPGLKIPSTKNSIALVSTNYPLSKTNSSSNDLEVEDRTSLVLNSDTCFENLTDPSSPTISSYENLLRTPTPPEVTKIPEDILQLLSKYNSNLATPIAIKAVPPSKRFLKHGQNIRDVSNKEN
Turning to B2, the binding result in experiment [3] was “binds”.

B3: Spc24-His (as subunit of the wild-type Ndc80 complex) (natural protein)
chain: MAAFRDIEEVSQGLLSLLGANRAEAQQRRLLGRHEQVVERLLETQDGAEKQLREILTMEKEVAQSLLNAKEQVHQGGVELQQLEAGLQEAGEEDTRLKASLLQLTRELEELKEIEADLERQEKEVDEDTTVTIPSAVYVAQLYHQVSKIEWDYECEPGMVKGIHHGPSVAQPIHLDSTQLSRKFISDYLWSLVDTEW
For B3, the binding result in experiment [4] is on record as “binds”.

B4: Spc25 (as subunit of the wild-type Ndc80 complex) (natural protein)
chain: MVEDELALFDKSINEFWNKFKSTDTSCQMAGLRDTYKDSIKAFAEKLSVKLKEEERMVEMFLEYQNQISRQNKLIQEKKDNLLKLIAEVKGKKQELEVLTANIQDLKEEYSRKKETISTANKANAERLKRLQKSADLYKDRLGLEIRKIYGEKLQFIFTNIDPKNPESPFMFSLHLNEARDYEVSDSAPHLEGLAEFQENVRKTNNFSAFLANVRKAFTATVYN
Regarding B4, in experiment [4], the binding result is on record as “binds”.
